Experimental data: the domain aggregation screens of Martell et al. (2025)

Assay: soluble fraction after stress (log2 fold change); higher = more stays soluble; pooled small domains, quantitative proteomics
Settings: stress: pH 4
Method in brief: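 Small protein domains from pooled custom libraries were exposed to pH 4, then quantified with high-throughput quantitative proteomics. The fold change in how much of each domain remains soluble is read as aggregation propensity. It is given as log2, with higher values meaning more stayed soluble.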

Sequence | soluble fraction (log2)
HMDTLESYVKRLEKLEGIADSFKGVSKAFALQAGREIRIMVESEKITDEEAVWLSKDIARRIENELEYPG | -0.468
HMDTNKMLIVNSISNGMKRLQELQDPQLAEIQKTFSGLDEQKATSAQLAQINNIINNRIAEIEG | 0.191
HMDTNPKVIITMDGVNVRSSASTGSDILFIAEKGEEYELISESGDFYKILYEGNKEGYVASWLVETSE | -0.022
HMDTNVKLLSPKQADFFASKLANNQNFSSKFAKVGEDMQPFIERISSELQQDISQVIVYMPYLLESGFKQ | -0.126
HMDTNVPVPNVNGMTLNQAKAALEAAGFHVAVNWLGEKSDNNSVISYEPNGSAAKGTTITITVIAQPEQDG | -0.507
HMDTPPGLSPEEQAIIDIITTRGDATINELTASIDIPTPRLMGMLVDMEFRSLIAAIPGGRYRI | -1.42
HMDTRQFWEQWVADEIRTFEHKDRKQLFGWFEGNKPKLGQMKKLGYGDLLTKVQTSWDEIYQQKE | 0.29
HMDTRSSARKALDAVNLLLETYGAKAYQHSYEIAGRRQQFQTPGDFMAFRSRLMAEVATEENAARINA | ≥ 0.43
HMDTSKIDYSEFITMLDKGEVESVVLKSDTLTVTLKHGTGMAAQTKTVTLMEDLSELTKRLEKAGVKSFDK | 0.176
HMDTVIAEVTASILNLRRSAGTSSDIIGKLNKGEKVSIIGGSGNWKNVRTSGGITGWVYHEYLSTY | -0.183
HMDTYDSIDSILEERHLSRRKLAQAIGLPPSTFQSMMSRKSGMTLEVLMKIVSYLQVSPDAFW | 0.061
HMDVAWDAIKAKLKEVVDAEDKAHPLNDDQIVKALGESGITIARRTIAKYRDLLGIPPARKRKA | 0.0412
HMDVIGLEAAKSAAVKDAGISSPTFTKATLDRDDGRSLYEIEFISGSTKYEYDIDALTGSVLSKKTRALS | ≥ 0.43
HMDVKPWERQEGESAKAFEAFTIYAGLGADRSLRAVAQQLGKSKTLMDRWSSTYSWVARAAEYDADLQRK | ≥ 0.43
HMDVLFGNRLRQLLDERNISQAHFADRIGVSRSRMNNYVAQRSEPDYATLIRIANTLDTSIDFLLGKS | -0.45
HMDVLIQEIGKRLRIQRLAMGLTQEELAKRAGISLSTLKLMEQQGKGSLQRLAKVAVVLDLDGDLRGLF | -1.01
HMDVLKVFSHNVRRYRTQLGLSQETVAFRTGLHRTYISAVERGKRSISLDNIQKIADALEVETYLLFI | 0.22
HMDVLNPGDKAVTTASWLNFRTGPGMQNKVASVLARNTTVNIIEKSNEWYKVSLANGSTGYVHGMYLSKIT | 0.105
HMDVLSQYGSRGEEVGKIQTRLKSWGYFSGEVTGYYGSQTTEAVKRFQQKHGLSATGVADRKTLELIGIS | 0.22
HMDVLTARENEVLQLLAKGMSNKEIASVLVITEKTVKAHVSSILSKLNLSDRTQAALYAVKNGI | -0.154
HMDVNMLVTGMLHKGEKSFVRVSFLRGKDWAEGIVPDAKIEKSQGFMEEEVARLEAYLLEQKSMIMEQA | -1.24
HMDVQGFVMDLDKPLDKEPIVEGFELKLEDSLTLVAAVNKDKSINSLFDELSKLGIKVKSMRNPP | -2.11
HMDVQNLTKKNQEFINIVTHQLLQSGKSDEDIQTILAKTLPEIIEKQKQGIPARSFLGAPTAWAAQFI | -0.0313
HMDVRLAKVYMLPANPYLRFIEFDDGTHGKFRAKPGKFGLGSVVKVKREDGDMYTLEGNYDGKDRL | 0.152
HMDVSPVRLIREARGLSQVEVAKAAGLSRAAYQNIEVGKTVPRASTMVNIARALGVSMDDLLAPV | 0.0681

Sequence | soluble fraction (log2)
HMDVSVPDVTGTRLDRAQSLLEAQGLTLGKVEEFFHATEPAGIVYDQEPRPGTRVDEGTAISVSVSKGPEA | 0.0997
HMDWFDELKVSTDDSGRVTAPEESEFMFQTSNEKIFAGGDMVRGSDLVVTAIWEGRQAAEGIMDYLD | -0.726
HMDWPDDETIARIYALIKSDISSQARKVMELRFSEGMPFARIAAAMGISETAVYRHLSHALTVIRQKLN | -1.24
HMDWREMTAWMAELLKRRTGDDVETWNARVRESGAHDEASLRAWLTEQGVTGYAQTLLVMERFGYPDFF | -1.67
HMDYADISYKIFMNHIKNGQVERVELSGDPRIMGKLKDGTYFVTDNPRTENFKEFLLLNNVQVIETN | -0.772
HMDYEVPEELQQKFEEFPRLKEAFYQLTPGRQHQYLYYFSQAKRSQTRYNRIDKYMNAILQGKGMK | 0.167
HMDYINALTTAGITDAKVIVTAPFDVSGTAALTGIYKAYEDITGSSLNEIAKAVGVEELITTGNLA | 0.2
HMDYKAELDNIIRDHLDMEGPLLPVLHAVMARFSYIPKDAIPIIARKLNLSSAEVSGVISFYHDFKKEK | -0.165
HMDYKYYIVKEPMVVKNLELPVGTRIVYFNTSLFGDSESSRPLKEKNIYQIFFPDDKPLIWGGVPVSLIER | -0.546
HMDYNLTKNQKIVFNLLQNSGEPLKAYTILESLKREGLKSPLQVYRALDKLVELGIIHKIESQNSFI | 0.0373
HMDYNMEEWSLTADQLKSGDTILILNLGKTATLLESTRGKKNVRVRMGNIKTIVETSSIRGNPHQ | -0.729
HMDYPFQYFNYSHLRILGVPAQLIKAVRKAPTLDAIEQLSGLSEKTKLWLLELATEPKLEDVLFDPGR | -0.515
HMDYRSMSGLQKAALLIMSVGEETAAKLFQLMHDDEIREISQTMANLGTVNATVIERLFVEFADAISS | -0.935
HMDYVKTLGETINVRVAASTDADIYKLLPGGEILNRVGYNEEWTKVMVDGSTFYVYSEYVIQTEPPA | -1.25
HMDYYSILGVDRNATGEDIKKAFKKKAMKYHPDRNPDNKESERKFKEAKEAYDTLSNPQKKSMYDQFGT | 0.141
HMEAEDLRDWVGARGIAYTALRPAGIAVVNGRRVDVVSEGAFVNRDDPVEVVRVEGRRIVVKP | -0.106
HMEAGTEYVERAADYIRSHFQEDLTVSKLALYVGLNRSYLTTVFQNTLHVSPQQFLMRFRMERAAQLLD | -0.302
HMEAGTVTVTHAAVYIRSGPGVSYPIAGKAAKNDTYTVLQKDGDWFQIRLPQGNTGWIAGWLVETGT | -0.133
HMEAISIYPNPTDNELHLSTSVQEVRIYNMYGIEVTRAANTDRLAVSHLPKGVYLVHADGAVLKMIK | -1.29
HMEAISSESIKKMIKSYVSGEDASKPLSDQQIADLLVKEGYMISRRTVAKYRDELGILSSSKRKR | ≥ 0.43
HMEAKQMDAWIVSEAKRQGGKIEPAAAYELSRHTATDTSIASQEIAKLLMYVDFKRPVTREDVVELVSA | -0.0795
HMEALPELTDRQRQVYEFIEARIAEWGYPPTIREIGQHLGIKSTNGVADHLKALKRKGYLQQ | -0.804
HMEALTPREREVLTLMGQGRSNAEIATLLSIAPRTAKVHVQNILSKLGATNRTEAVSLAVRQGLIS | -0.18
HMEASVNAPMPGKIVSVSVSEGQQVNAGDVLLILEAMKMQNEITADAAGTVKAINVNAGQSVKNGDSLVIL | -0.586
HMEAVGLTPRQGDVLALLLQGKPNKLIARDLNLSVETVKDHVAAVLRALGVSTRTQAVLAVSQMQQQAAQ | -0.221

Sequence | soluble fraction (log2)
HMEAVLTISPGMYSESVSAELVRLGIITNQKEFNSYLVNNGYAERIQTGDFKIKADMSYDEIARIITK | -0.489
HMEAYDTMEDRTTLAPGFAKLDKRERYILHLRFFEGLTQSQIAERVGISQMHVSRLIRRSLEKLREEIGD | -0.4
HMEAYSAEAVRFRIKAMIESETVDDVMSDDKIVERLLADGVDIARRTVAKYREAMNIPSSVKRRRKLKGM | -0.962
HMEDDRMLVWFFRKSIQNGAQSEAEGRPIFEGKDYVHIQQPGERDYIEREAHQGDIGRWPRHWQAYQEGR | -0.359
HMEDEAVMQLPLSELKGLSPELLAILNGAGYEKLKDVLDLEREDIERIPGMTPERNEQLVAFLAELTE | -1.98
HMEDELFSVARAAFPEYASKIHMNYGSTVQSIARQSGVLTVSETKQLNENQQISYLEYSNGAVVLALA | -0.306
HMEDELVMERFDINELVKSVVNANELRATQKNLSITYDILDTPLYVWADEYKVEEVVTNYLS | -1.06
HMEDIASESVKRVIRKIIDDEDKKSPLSDQAIVEILAKGEGIVIARRTVAKYREMMGILPSSKRKKH | 0.0959
HMEDKIEESLEDNISELFAKTKDKYTLINDLYSKGYTVEELSRFSGLPSGEVRLVISLNSKN | -0.183
HMEDKPITKEQKQAMFALLREHFSGDEGNAVYTAVLEREGLAPGDKIMSSVYDRLIDGINEAIRQKLEAGA | -0.133
HMEDNLMIVVQVNGKKRSEIKVSIDASEDQIKQTALAEPNVQKFVEGHTIRKMILVPSKLLNIVV | ≥ 0.43
HMEDPKLAQLTEQERKILDLIADGLTNRQIAEKMFLAEKTVKNYVSTILAKMGMSNRSEAAAYVARLEAG | -0.292
HMEDPPISQEQRQALFKMAHDHLGKDEGNKAILTLIQSHGLNSTTGMKVSTYNTIMEELVSTIQSLAA | 0.0682
HMEDPVAQEARAAFEVGRLLAAATGPVTLAAIRRAIDLPEERLEEILRRLEESGAVRRARDGWLPG | -0.269
HMEDVDLFTKAMAALPNRYRDILLLRYSHGYTVEEISDILSMKPENVKKTIQRARKKLGEILEAEG | -0.202
HMEEDPVIAAQRFLNIFRQLHIFTAAKRKEFDELLLKQPASVKGMFASLPGGSVLQEYVNNLEQNAG | -0.0952
HMEEFIEHTVEKGEFLSAIIVAYNQHLKSKGFKSITTRDILNANPKLKPELIQVGQKIKIPRRKK | -0.0958
HMEEFLSFIADILEVDKNTLTLETSQDDVETWDSLMQLRLLGEIEAKYGVMIPMERISTIKKLNDFYQYIK | -1.76
HMEEIIPIRFLRHRVKRRETIFGLTQKYNITEDQLKRYNTRLYSEALERKMVLQIPVFPEVDED | -0.667
HMEEITLQEQINFIKDMLLNKEKFHLTDVITKKSKIYVVSLFLALLELIRLEEINFRQTQNFSDIIISRI | -0.381
HMEELGKVRPELDGNEIAKVLGITPGPVLGRAYTYLLSVRLDEGPIGPDVARERLLAWWAEQPES | -2.01
HMEELIEMNGVVMEILPDSRYRVTLDNGHKLIAYTGGKMKKNHIRILAGDKVTLELSPYDINNGRITFRHI | -0.146
HMEELTDSELNNLYRELFIARSNASDGVGIIEQKTIKGITYRLSNDNNYLIKELGNKEYIYKNGVWEEYT | 0.0623
HMEENNIVIYITGAVKKEGIYEIKENSRISDAIEAAGGLLENANIKDINLAYIIEDGVKIYIPTNEEVNK | -1.35
HMEEPFRIEKKGDIYYISGKTVERLVAMTDLDNDSAVKRLQRTLKRMGVEDALREHGINPGDTVVIGNYEF | 0.04
